Experimental data reported in doi:10.1101/2023.08.19.553944.
Changes are numbered by the printed parent chain. Read-outs that look alike come from different tables or passages of the source.

Tests used:
Experiment in all cases: EMSA
5xH-PTBP1 [1] = molecular target: T1, 5xH-PTBP1 (UniProt P26599 1-557)
GST-PTBP1 = GST-PTBP1 (UniProt P26599 1-557)
PTBP2 (TnT) = PTBP2 (TnT) (UniProt Q9UKA9 1-531)
5xH-PTBP1 [2] = molecular target: T1, 5xH-PTBP1; remark: listed apart in the source
GST-hnRNP A1 = GST-hnRNP A1 (UniProt P09651-2 1-320)
hnRNP A1 (TnT) = hnRNP A1 (TnT) (UniProt P09651-2 1-320)
GST-PTBP2 = GST-PTBP2 (UniProt Q9UKA9 1-531)
GST-PTBP2, sequence (Q9UKA9 whole entry): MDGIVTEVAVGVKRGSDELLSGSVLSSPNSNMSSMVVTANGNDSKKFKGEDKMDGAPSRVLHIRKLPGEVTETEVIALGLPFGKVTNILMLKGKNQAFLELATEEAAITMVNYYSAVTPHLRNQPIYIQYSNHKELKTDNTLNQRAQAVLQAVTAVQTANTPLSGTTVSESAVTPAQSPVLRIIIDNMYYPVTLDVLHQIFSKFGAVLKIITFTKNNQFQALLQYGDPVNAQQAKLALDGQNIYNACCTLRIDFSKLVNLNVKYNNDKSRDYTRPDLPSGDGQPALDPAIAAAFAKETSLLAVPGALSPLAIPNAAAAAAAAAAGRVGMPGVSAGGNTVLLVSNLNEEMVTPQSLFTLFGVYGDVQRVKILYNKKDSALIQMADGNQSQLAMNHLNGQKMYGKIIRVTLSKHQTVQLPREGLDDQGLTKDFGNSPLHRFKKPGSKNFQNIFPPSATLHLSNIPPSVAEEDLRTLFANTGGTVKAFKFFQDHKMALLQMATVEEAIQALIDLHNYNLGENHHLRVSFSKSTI

T1 sequence (P26599 whole entry): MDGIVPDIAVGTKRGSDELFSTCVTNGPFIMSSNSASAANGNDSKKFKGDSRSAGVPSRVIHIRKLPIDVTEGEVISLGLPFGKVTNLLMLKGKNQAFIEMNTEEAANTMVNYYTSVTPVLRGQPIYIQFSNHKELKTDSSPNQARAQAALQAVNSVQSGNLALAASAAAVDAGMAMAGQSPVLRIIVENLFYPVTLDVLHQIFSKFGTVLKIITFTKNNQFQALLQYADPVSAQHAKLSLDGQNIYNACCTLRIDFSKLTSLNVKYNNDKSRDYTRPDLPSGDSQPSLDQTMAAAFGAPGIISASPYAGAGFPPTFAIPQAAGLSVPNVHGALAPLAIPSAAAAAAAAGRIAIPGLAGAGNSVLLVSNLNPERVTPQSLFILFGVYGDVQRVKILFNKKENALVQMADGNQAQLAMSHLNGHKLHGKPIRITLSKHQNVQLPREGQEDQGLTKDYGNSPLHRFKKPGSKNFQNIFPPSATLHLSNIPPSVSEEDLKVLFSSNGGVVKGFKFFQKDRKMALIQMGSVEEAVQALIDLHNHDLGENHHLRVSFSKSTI
GST-PTBP1, sequence (P26599 whole entry): as above
PTBP2 (TnT), sequence (Q9UKA9 whole entry): as the sequence (Q9UKA9 whole entry) above

B1: U7/SPL (structured_RNA)
RNA: CAGUGUUACAGCUCUUUUAGAAUUUUUGGAGUAGGCUUUCUGGCUUUUUACCGGAAAGCCCCUCUUAUG
binding result (5xH-PTBP1 [1]): binds
binding result (GST-PTBP1): binds
binding result (PTBP2 (TnT)): no binding

B2: U7/PU (structured_RNA)
RNA: B1 RNA with C12G, U13A, C14G, U15A, U26G, G28C, G29U
binding result (5xH-PTBP1 [1]): binds
binding result (GST-PTBP1): binds

B3: U7/2xGA (structured_RNA)
RNA: B1 RNA with A19G, G20A, U26G, G28C, G29U, A30G, G31A
binding result (5xH-PTBP1 [2]): binds
binding result (GST-hnRNP A1): no binding
binding result (hnRNP A1 (TnT)): no binding

B4: U7/2xMut (structured_RNA)
RNA: B1 RNA with C12G, U13A, C14G, U15A
binding result (GST-PTBP2): no binding
binding result (hnRNP A1 (TnT)): binds
